From PMC3571714

Key:
[1] = target: A1T1-His6 (module 1 multi-domain construct of the nocardicin NRPS) (Nocardia uniformis subsp. tsuyamanensis ATCC 21806); assay: pull-down
[2] = target: A4T4-His6 (module 4 multi-domain construct of NocB) (Nocardia uniformis subsp. tsuyamanensis ATCC 21806); assay: pull-down

stoichiometry N [1]: 1
stoichiometry N [2]: 1
Substance: MbtH family protein NocI (untagged) (natural protein)
